Results: patent US7052692

Legend:
[1] = test system: D-sequence-binding protein (D-BP), dephosphorylated form
[2] = target: D-sequence-binding protein (D-BP) (human); assay: cell-based or functional assay

| Ratio of dephosphorylated/phosphorylated ssD-BP, EGF-R-transfected 293 clone 293-4 [2] | Ratio of dephosphorylated/phosphorylated ssD-BP, EGF-R-transfected 293 clone 293-5 [2] | Ratio of dephosphorylated/phosphorylated ssD-BP, EGF-R-transfected 293 clone 293-6 [2] | Ratio of dephosphorylated/phosphorylated ssD-BP, EGF-R-transfected 293 clone 293-8 [2] | Ratio of dephosphorylated/phosphorylated ssD-BP, EGF-R-transfected 293 clone 293-12 [2] | Ratio of dephosphorylated/phosphorylated ssD-BP, control untransfected 293 cells [2] | Ratio of dephosphorylated/phosphorylated ssD-BPs, average of the EGF-R-transfected 293 cell clones [2] | Substance | in vitro phosphorylation assay followed by EMSA with the D(-) probe [1] |
| --- | --- | --- | --- | --- | --- | --- | --- | --- |
| – | – | – | – | – | – | – | purified EGF-R PTK (CalBiochem) | incubation of the ssD-BP with the purified EGF-R PTK resulted in phosphorylation of this protein whereas incubation in the presence of ATP alone had no effect |
| 0.31 | 0.45 | 0.36 | 0.51 | 0.64 | 3.5 | 0.45 | human epidermal growth factor receptor (EGF-R) (from UniProt P00533 25-1210) | – |
